# Patent publication CN111662379A (JIANGSU DISEASE CONTROL AND PREVENTION CENTER JIANGSU …, dated 2020)
# Legend:
# [1] = target: SARS-CoV-2 S蛋白 (on live virus, 江苏分离株 BetaCoV/JS03/human/2020) (SARS-CoV-2, UniProt P0DTC2 14-1273); assay: cell-based or functional assay
# [2] = target: 重组SARS-CoV-2刺突蛋白胞外区 (extra cellular domain of spike protein, S-ECD) (SARS-CoV-2, UniProt P0DTC2 14-1213); assay: SPR, Biacore 8K, S-ECD immobilised on a CM5 chip, antibody injected at 125nM~7.8nM
# [3] = target: 重组SARS-CoV-2刺突蛋白胞外区 (extra cellular domain of spike protein, S-ECD) (SARS-CoV-2, UniProt P0DTC2 14-1213); assay: as above; remark: listed apart in the source
binder,measurement,setting,value
"FC05 (antibody, V domains shown) VH: VQLLEQSGAEVKKPGASVRVSCKVSGYTLPEVAMHWVRQAPGKGLEWMGGFDPEDGETIYAQKFQGRVTMTEDTSTDTAYMELSSLRSEDTAVYYCATTTPFSSSFWFDPWGQGTLVTVSS VL: QSVLTQAPSVSGAPGQKVTISCSGSSSNIGNNYVSWYQQLPGTAPKLLIYDNNKRPSGIPDRFSGSKSGTSATLGITGLQTGDEADYYCGTWDSSLSAVVFGGGTKLTVL","IC50 (体外中和实验, live SARS-CoV-2 on Vero E6 cells, cytopathic effect)",[1],0.142 µg/mL
"FC11 (antibody, V domains shown, also called FC11抗体) VH: EVQLLESGGGVVQPGRSLRLSCAASGFTFSYYGMHWVRQAPGTGLEWVAVISYDGSNEYYADSVKGRFTISRDNSKNTLYLQMNSLRAEDTAVYYCAKAMFLGDSSGLTGLDMDVWGQGTTVTVSS VL: DIELTQSPGTLSLSPGERATLSCRASQSVSSYLAWYQQKPGQAPRLLIYDASNRATGIPARFSGSGSGTDFTLTISSLEPEDFALYYCQQRGNWPPTFGGGTKLEIK",Kd,[2],0.5 nM
"FC08 (antibody, V domains shown) VH: VQLLQQSGAEVKKPGSSVKVSCKASGGTFSSYAISWVRQAPGQGLEWMGGIIPILGIANYAQKFQGRVTITADKSTSTAYMELSSLRSEDTAVYYCVRERGYSGYGAAYYFDYWGQGTLVTVSS VL: QSVLTQPPSVSGAPGQRVTISCTGSSSNIGAGYDVHWYQQLPGTAPKLLIYGNSNRPSGVPDRFSGSKSGTSASLAITGLQAEDEADYYCQSYDSSLSGSVFGGGTKLTVL",Kd,[3],0.8 nM
